Experiment [1] has as its target YY1 cellular transcription factor, endogenous in LCLs (UniProt P25490). Briefly: co-immunoprecipitation (YY1 IP, EBNA-LP blot, band signal quantified). The settings on record: 50% IP lanes; trans-complemented LPKO LCLs; parent: 1.
For experiment [2] the target is unchanged. Briefly: co-immunoprecipitation (FLAG-EBNA-LP IP, YY1 blot, band signal quantified). The settings on record: 50% IP lanes; LPKO LCLs (Donor 4) trans-complemented; parent: 1.0.

Chain of UniProt P25490 (P25490 whole entry): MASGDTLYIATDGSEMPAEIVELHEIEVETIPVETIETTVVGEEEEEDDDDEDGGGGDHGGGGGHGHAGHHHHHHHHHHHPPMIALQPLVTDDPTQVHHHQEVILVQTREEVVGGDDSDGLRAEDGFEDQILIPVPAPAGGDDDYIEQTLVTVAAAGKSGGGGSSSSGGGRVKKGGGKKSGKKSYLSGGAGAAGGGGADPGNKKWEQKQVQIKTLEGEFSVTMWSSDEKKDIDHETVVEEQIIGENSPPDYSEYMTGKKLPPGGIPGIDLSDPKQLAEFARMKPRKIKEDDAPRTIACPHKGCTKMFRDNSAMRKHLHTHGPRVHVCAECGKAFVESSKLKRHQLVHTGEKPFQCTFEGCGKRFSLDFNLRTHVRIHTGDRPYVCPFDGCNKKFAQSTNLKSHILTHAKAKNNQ

As for “FLAG-EBNA-LP wild type (B95-8) with four W domains, from the trans-complementation vector W:L25A; W:L28A; W:L29A (in each of the four W domains); Y:L13A; Y:L17A; Y:L18A”, the response was found to be 0 in experiment [1] and 0.01 in experiment [2].
